Reference: patent US20230382970A1 (HANMI PHARM, published 2023)
Bridge positions count the residues as written; N and C are the ends. Square brackets hold non-standard residues; d marks the D form. Ends that are not written are not given here. Aib = CC(C)(N)C(=O)O

Key:
[1] = biological target: human GLP-1 receptor (human, UniProt P43220 24-463); assay: cell-based or functional assay
[2] = biological target: T1, human GIP receptor (human, UniProt P48546 22-466); assay: cell-based or functional assay
T1 sequence (looked up): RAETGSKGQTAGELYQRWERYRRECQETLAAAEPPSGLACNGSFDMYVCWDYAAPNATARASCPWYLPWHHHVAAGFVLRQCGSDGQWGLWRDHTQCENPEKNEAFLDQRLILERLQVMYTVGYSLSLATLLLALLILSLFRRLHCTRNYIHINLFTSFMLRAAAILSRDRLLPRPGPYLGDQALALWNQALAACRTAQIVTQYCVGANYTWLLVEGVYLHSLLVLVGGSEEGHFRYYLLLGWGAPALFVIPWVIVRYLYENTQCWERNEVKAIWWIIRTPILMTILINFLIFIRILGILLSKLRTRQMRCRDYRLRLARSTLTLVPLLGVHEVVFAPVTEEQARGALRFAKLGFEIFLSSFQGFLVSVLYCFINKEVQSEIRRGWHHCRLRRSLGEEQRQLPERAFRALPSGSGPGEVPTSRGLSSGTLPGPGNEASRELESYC

| Binder | In vitro activity (%) compared to native-type peptide, vs human GLP-1 (cAMP EC50, human GLP-1 receptor-expressing CHO cells) [1] [%] | In vitro activity (%) compared to native-type peptide, vs human GIP (cAMP EC50, human GIP receptor-expressing CHO cells) [2] [%] |
| --- | --- | --- |
| Y[Aib]EGTFTSDYSIYLDERACKDFVQWLLDHHPSSGQPPPSYK (bridge 16-20) [GLP-1/GIP dual agonist of SEQ ID NO: 15] | 97.5 | 64.4 |
| Y[Aib]EGTFTSDYSI[Aib]LDKIAQRAFVQWLIAGGPSSGAPPPSK [GLP-1/GIP dual agonist of SEQ ID NO: 16] | 60 | 72.3 |
| Y[Aib]EGTFTSDYSIALEKQAQQDFVNWLLAGGPSSGAPPPSC [GLP-1/GIP dual agonist of SEQ ID NO: 28] | 6.7 | 146 |
| Y[Aib]EGTFTSDYSI[Aib]LDKQAA[Aib]EFVNWLL[Aib]GGPSSGAPPPSC [GLP-1/GIP dual agonist of SEQ ID NO: 29] | 0.5 | 96 |
| Y[Aib]EGTFTSDYSRYLDERAQKDFVQWLLDHHPSSGQPPPSK (bridge 16-20) [GLP-1/GIP dual agonist of SEQ ID NO: 10] | 108 | – |
| Y[Aib]EGTFTSDYSRYLDERAAKDFVQWLLDHHPSSGQPPPSK (bridge 16-20) [GLP-1/GIP dual agonist of SEQ ID NO: 9] | 141 | – |
| Y[Aib]EGTFTSDYSIYLDKQAA[Aib]AFVQWLIAGGPSSGAPPPSC [GLP-1/GIP dual agonist of SEQ ID NO: 19] | 32.8 | 13.9 |
| Y[Aib]EGTFTSDYSKYLDEKAAKEFVQWLLDQHPSSGQPPPSC (bridge 16-20) [GLP-1/GIP dual agonist of SEQ ID NO: 22] | 41.1 | 39.6 |
| H[Aib]EGTFTSDYSKYLDKKRQ[Aib]EFVQWLLNGGPSSGAPPPSC [GLP-1/GIP dual agonist of SEQ ID NO: 14] | 160 | 0.3 |
| Y[Aib]EGTFTSDYSIQLDKIAQKAFVQWLIAGGPSSGAPPPSC [GLP-1/GIP dual agonist of SEQ ID NO: 17] | 19.8 | 7.7 |
| Y[Aib]EGTFTSDYSEYMEKEAVREFISWLVRGGPSSGAPPPSK (bridge 12-16) [GLP-1/GIP dual agonist of SEQ ID NO: 13] | 116 | – |
| Y[Aib]EGTFTSDYSKYLDERASKDFVQWLLDHHPSSGQPPPSC (bridge 16-20; also: ring type not given here) [GLP-1/GIP dual agonist of SEQ ID NO: 8] | 35.9 | 29.2 |
| Y[Aib]EGTFTSDYSI[Aib]LDKQAA[Aib]AFVQWLIAGGPSSGAPPPSC [GLP-1/GIP dual agonist of SEQ ID NO: 20] | 31.5 | 64.2 |
| Y[Aib]EGTFTSDYSIQLDKIAQRAFVQWLIAGGPSSGAPPPSK [GLP-1/GIP dual agonist of SEQ ID NO: 18] | 43.3 | 15.9 |
| Y[Aib]EGTFTSDYSI[Aib]LDKIAAKAFVQWLIAGGPSSGAPPPSC [GLP-1/GIP dual agonist of SEQ ID NO: 21] | 19.7 | 23.2 |
| Y[Aib]EGTFTSDYSRYLDERASKDFVQWLLDHHPSSGQPPPSK (bridge 16-20) [GLP-1/GIP dual agonist of SEQ ID NO: 11] | 95 | – |
| Y[Aib]EGTFTSDYSKYLDEIAAKDFVQWLLDHHPSSGQPPPSC (bridge 16-20) [GLP-1/GIP dual agonist of SEQ ID NO: 3] | 6.8 | 28.7 |
| Y[Aib]EGTFTSDYSIAMDAIAQQDFVNWLLAQRGKKSDWKHNITQC [GLP-1/GIP dual agonist of SEQ ID NO: 27] | 0.2 | 55.5 |
| Y[Aib]EGTFTSDYSKYLDEIAQKDFVQWLLDQHPSSGAPPPSC (bridge 16-20) [GLP-1/GIP dual agonist of SEQ ID NO: 24] | 7.3 | 83.9 |
| Y[Aib]EGTFTSDYSKYLDERAQKDFVQWLLDHHPSSGQPPPSC (bridge 16-20; also: ring type not given here) [GLP-1/GIP dual agonist of SEQ ID NO: 7] | 18.3 | 62.3 |
| Y[Aib]EGTFTSDYSKYLDEEAVKLFVQWLLDQHPSSGAPPPSC (bridge 16-20) [GLP-1/GIP dual agonist of SEQ ID NO: 25] | 3.2 | 59.4 |
| Y[Aib]EGTFTSDYSKYLDEIRAKDFVQWLLDHHPSSGQPPPSC (bridge 16-20) [GLP-1/GIP dual agonist of SEQ ID NO: 2] | 3.3 | 28.8 |
| Y[Aib]EGTFTSDYSEYMEKEAVREFIAWLVRGGPSSGAPPPSK (bridge 12-16) [GLP-1/GIP dual agonist of SEQ ID NO: 12] | 110 | – |
| Y[Aib]EGTFTSDYSKYLDEKAAKDFVQWLLDHHPSSGQPPPSC (bridge 16-20) [GLP-1/GIP dual agonist of SEQ ID NO: 5] | 20.2 | 48.2 |
| Y[Aib]EGTFTSDYSEYMEKEAVREFIAWLVKGGPSSGAPPPSC (bridge 12-16) [GLP-1/GIP dual agonist of SEQ ID NO: 1] | 53.9 | 27.5 |
| Y[Aib]EGTFTSDYSI[Aib]LDKQAA[Aib]EFVNWLL[Aib]GHPSSGAPPPSC [GLP-1/GIP dual agonist of SEQ ID NO: 30] | 1 | 63.4 |
| Y[Aib]EGTFTSDYSIAMDAIAQQDFVNWLLAQKGKKNDWKHNITQC [GLP-1/GIP dual agonist of SEQ ID NO: 26] | 0.3 | 57.9 |
| Y[Aib]EGTFTSDYSKYLDEQAAKEFVQWLLDQHPSSGAPPPSC (bridge 16-20) [GLP-1/GIP dual agonist of SEQ ID NO: 23] | 13.5 | 106 |
